Results as given in patent US20160052993A1.

Columns and labels:
hFcRn (human) = hFcRn (human) (UniProt P61769); assay: ELISA; settings: other; remark: other sources report otherwise
[1] = molecular target: single-chain human FcRn, FLAG/His-tagged (human) (UniProt P61769); assay: ELISA, HSA variant immobilised, schFcRn titrated, pH 5.5 (asterisk)

Sequence of hFcRn (human) (P55899 24-297, chain 1 of 2): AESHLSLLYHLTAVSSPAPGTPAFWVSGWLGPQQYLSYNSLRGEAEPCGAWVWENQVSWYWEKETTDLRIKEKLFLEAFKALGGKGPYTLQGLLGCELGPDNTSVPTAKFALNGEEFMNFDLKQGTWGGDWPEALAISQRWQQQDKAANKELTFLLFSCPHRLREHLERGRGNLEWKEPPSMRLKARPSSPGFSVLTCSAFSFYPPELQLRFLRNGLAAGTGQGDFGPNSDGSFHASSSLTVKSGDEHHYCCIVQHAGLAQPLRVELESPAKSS
Sequence of hFcRn (human) (P61769 21-119, chain 2 of 2): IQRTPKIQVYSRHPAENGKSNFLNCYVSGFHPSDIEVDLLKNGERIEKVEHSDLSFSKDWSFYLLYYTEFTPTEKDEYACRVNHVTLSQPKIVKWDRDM

HSA13+H510F (from UniProt P02768 25-609)
Kd (hFcRn (human)): 0.032 µM

HSA13+H535F (from UniProt P02768 25-609)
Kd (hFcRn (human)): 0.0918 µM

HSA18 (V424I) (from UniProt P02768 25-609)
Kd [1]: 0.25 µM
